The source of these data is paper PMC9839326 (Science Advances, 2023).

For the experiment, the target named is cytochrome f (Cyt f) of spinach Cyt b6f (spinach (Spinacia oleracea), UniProt P16013 36-320). Description: cryo-EM structure.
Chain of cytochrome f (Cyt f) of spinach Cyt b6f (P16013 36-320): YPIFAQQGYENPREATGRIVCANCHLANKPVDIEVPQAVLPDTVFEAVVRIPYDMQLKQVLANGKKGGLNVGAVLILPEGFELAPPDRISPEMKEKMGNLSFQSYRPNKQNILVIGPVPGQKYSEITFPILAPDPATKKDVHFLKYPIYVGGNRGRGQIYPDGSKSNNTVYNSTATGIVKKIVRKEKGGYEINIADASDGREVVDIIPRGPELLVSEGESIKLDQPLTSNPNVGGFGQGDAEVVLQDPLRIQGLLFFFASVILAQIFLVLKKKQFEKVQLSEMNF

B1: plastocyanin (PC) from spinach (natural protein)
chain: VEVLLGGGDGSLAFLPGDFSVASGEEIVFKNNAGFPHNVVFDEDEIPSGVDAAKISMSEEDLLNAPGETYKVTLTEKGTYKFYCSPHQGAGMVGKVTVN
With B1, the binding result is given as “binds”.
